From paper PMC7509637 (Advanced Science, 2020)
Entries after “also recorded” stand apart in the source; their conditions may differ.

B1: FapC monomers: monomeric FapC, purified via a PD10 desalting column (protein)
chain: GNEGGWHPPKPNPQSNNKGGATALVVDTQQNYNNKVSNFGTLNNASVSGSIKDASGNVGVNVAAGDNNQQANAAALASADASFVFGTATASTSVLQSGYGNTLNNYSNPNTASLSNSANNVSGNLGVNVAAGNFNQQKNDLAAAVSNGQYSTAGSAASQTSTGNTTVNSANYAYGGTYVSLKLNADGSYKGTSDQIGDVYLDTWEGQTHPGGSNTGHIDVDSQAQGAKDLNHDGGAFAFKEKGDVDLKGTVSGFIPAIVGFKTPVTNNASLSNSLQNVSGNVGVNIAAGGGNQQSNSLSIAAGCSSCPAGGESLGF
B2: FapC fibrils: FapC incubated in deionized water at 37 °C for 1 week, nonsonicated fibrils (protein)
chain: B1 chain
B3: FapCS derived from younger FapC fibrils: seeds from FapC fibrils fibrillated for 4 d at 37 °C and 25 °C (protein, UniProt Q9I2F0 25-340, looked up)
Functional amyloid subunit …: B1 chain
modifications: sonicated fibril seeds
notes: seeds from FapC fibrils fibrillated for 4 d at 37 °C and 25 °C

Key:
Aβ [1] = target: T1, Aβ (Homo sapiens, UniProt P05067); test: ThT kinetic assay of Aβ fibrillization (seeding with FapC species, Aβ seeds, bLgS); assay type: biochemical; conditions: 37 °C, n = 3; for effect on Aβ fibrillization (ThT): Aβ 50 × 10^−6 M, seeds/FapC species 5 × 10^−6 M, ThT fluorescence ex 445/em 485 nm; for effect on rate constant k of Aβ (in words): 5 × 10^−6 M with Aβ 50 × 10^−6 M, FapCS *, p < 0.05, FapC monomer and fibrils **, p < 0.005
T1 construct: purchased Anaspec Inc
Description: FapC seeds (FapCS) were produced by FapC fibrils of three different ages. The FapC monomers were produced as described^[ ^45 ^] and stored in 6 M GdmCl. Prior to fibrillization, the FapC monomers were purified via a PD10 desalting column. FapC monomers (1 mg mL^−1 or 40 × 10^−6 M) were incubated in deionized water at 37 °C for 1 week to produce mature fibrils and at 37 °C or 25 °C for 4 d to obtain young fibrils. Deionized water was used to make FapC fibrils as it is convenient to transfer the samples to other experimental conditions, i.e., buffered Aβ solution or PBS for in vivo microinjection. However, bacterial amyloids like FapC and curli can make amyloids over a range of conditions.^[ ^93 ^] FapCS were produced by sonicating an aqueous solution of FapC fibrils (10 × 10^−6 M) at 20 power of a probe sonicator (Sonics Vibracell: 750 watts and 20 kHz) for 2 min with 1 s on/off cycle. For in vitro cross‐seeding experiments, 50 × 10^−6 M of Aβ monomers were incubated with 5 × 10^−6 M of FapCS (10:1 molar ratio, Aβ:FapCS) at 37 °C. bLg amyloids were synthesized by heating of bLg monomers (80 °C, pH 2) of 10 mg mL^−1 solution for 24 h. Prior to the production of bLgS, the bLg amyloid solution was brought to pH 7 and then sonicated, similar to FapC, to generate bLgS.
Aβ (Anaspec Inc., purity ≥ 95%) was dissolved in 100 µL of hexafluoro‐2‐propanol (HFIP) and incubated at room temperature for 3 h. The acquired aliquots of this solution were freeze dried and stored at −20 °C for further experimentation. […] For the ThT kinetic assay, a 100 µL of aqueous solution containing Aβ (50 × 10^−6 M), FapCS or bLgS (5 × 10^−6 M) and ThT dye (100 × 10^−6 M) was incubated (37 °C) in a 96‐well plate. The ThT fluorescence (excitation: 445 nm/ emission: 485 nm) was recorded at specified time intervals for 50 h. Kinetic parameters (rate constant k, half‐life t 1/2 and lag‐time) were calculated as described.^[ ^94 ^] Briefly, kinetic curves were fitted to a sigmoidal curve =y0+ymax−y0/1+e^−(t−t1/2)k , where y 0 and y max are initial and final ThT fluorescence values, allowing us to calculate lag time = t 1/2 − 2/k.

Aβ [2] = target: T1, Aβ; test: Static light scattering (SLS) of Aβ fibrillar growth; assay type: biochemical; conditions: ratio as for ThT assay, Malvern Zetasizer Nano, n = 3
Description: Increases in the size of Aβ in the presence and absence of FapCS or bLgS were monitored by SLS. Solution of Aβ with FapCS or bLgS, at a similar ratio as for the ThT assay, was prepared and incubated. SLS measurements were performed at different time intervals using a Malvern Zetasizer Nano. The parameters were fixed at 7 for attenuator and 4.20 mm for cell position. Quartz cells with low volume capacity (100 µL) were used. The light scattering intensities (kilo counts per sec) and the refractive indices of the samples, buffer alone and toluene were measured.

Aβ [3] = target: T1, Aβ; test: TEM imaging of Aβ with FapC species or bLgS; conditions: 12 h incubation, uranyl acetate negative stain
Description: (§1) Aβ incubated in the presence or absence of FapCS, FapC monomers, FapC fibrils or bLgS were subjected to TEM imaging. After incubation for 12 h, a drop of sample was applied on a glow‐discharged carbon‐coated copper grid. After 1 min, the sample was blotted and then negatively stained with uranyl acetate (1%) for 30 s. The dried grid was then imaged with a Technei F20 TEM at 200 kV. For AFM, a drop of sample was placed on freshly cleaved mica surface and rinsed with water after 2 min and dried with pressurized air. The sample was scanned with an AFM (Nanoscope VIII Multimode Scanning Force Microscopes, Bruker), covered with an acoustic hood to minimize the vibrational noise. Images were acquired under the tapping mode with a silicon nitride cantilever (Bruker). AFM images were processed with Nanoscope Analysis 1.5 software to flatten the background and to calculate the statistical parameters.

Aβ [4] = target: T1, Aβ; test: Circular dichroism spectroscopy, secondary structure; conditions: incubation with Aβ, Figure S7
Description: Solutions of 200 µL, at similar molar ratios as for ThT assay, were prepared and incubated at 37 °C. CD spectra for different samples at 0, 12 and 48 h were measured with a CD spectrophotometer (Jasco) from 190 to 240 nm (1 nm step size). The percentage secondary structure was calculated by the CD data via Dichroweb analysis with parameters of Contin/reference set 4.^[ ^95 ^]

Aβ monomers = test: Isothermal titration calorimetry (ITC); assay type: binding; conditions: Aβ 200 × 10^−6 M into 20 × 10^−6 M seeds, 0.1% NH4OH, 25 °C
Description: ITC (Malvern MicroCal iTC200) was used to explore the interaction between Aβ monomers and oligomers (Aβo) with FapCS. Sample solutions were degassed at 25 °C while stirring (100 rpm). Aβ (200 × 10^−6 M, 40 µL) was filled into the syringe while FapCS or bLgS (20 × 10^−6 M, 200 µL) were filled in the cell (coin shaped). 0.1% NH4OH buffer solution was used for both solutions. Aβ was injected into the cell at an injection volume of 2 µL at the duration of 4 s and with a spacing of 180 s. First injection was 0.2 µL for 0.4 s duration and a total of 16 injections were programed. The heat exchange was recorded with a Microcal analysis (origin v7) software. The heat of dilution (Aβ against buffer) was subtracted from the interaction heat of samples. The acquired curves were fitted to a sequential binding model and thermodynamic parameters of binding energy (ΔH), free energy (ΔG), and entropic factor (TΔS) were calculated. Aβo for the ITC experiments was prepared by incubating Aβ aqueous solution (200 × 10^−6 M) at 4 °C for 48 h.^[ ^65 ^]

Aβ fibrils = test: AFM of fibrils, FiberApp statistical analysis
Description: as §1

| Molecule | effect on Aβ fibrillization (ThT) (Aβ [1]) | Aβ fibrillar growth by SLS (Aβ [2]) | TEM observation (Aβ [3]) | effect on secondary structure (in words) (Aβ [4]) | binding to Aβ by ITC (in words) (Aβ monomers) | effect on rate constant k of Aβ (in words) (Aβ [1]) | pitch size of fibrils (Aβ fibrils; FiberApp) [nm] | fibril diameter (Aβ fibrils; from fibril heights, mean ± SD) [nm] |
| --- | --- | --- | --- | --- | --- | --- | --- | --- |
| bLgS: seeds from whey protein β‐lactoglobulin amyloids by sonication [reference compound] | did not render any acceleration of Aβ fibrillization | did not render any acceleration of Aβ fibrillization | did not render any acceleration of Aβ fibrillization | did not induce β‐sheet formation in Aβ; also recorded: α‐helical and random‐coil structures of bLgS were slightly increased | Insubstantial binding | – | – | – |
| B1 | lacked such acceleratory effect | – | appeared to aggregate on top of Aβ fibrils | – | – | significantly suppressed | – | – |
| B2 | lacked such acceleratory effect; also recorded: significantly suppressed | – | did not coat FapC fibrils | – | – | significantly suppressed | 26 | 3.6 ± 1.0 |
| B3 | accelerated Aβ fibrillization (Figure S3, Supporting Information), but less than the seeds derived from mature FapC fibrils | – | – | – | – | – | – | – |
